Sequences and labels used below:
B1: TPR t1 (parent)
chain: GACCAAUCUGCCCUCAGAGCUCGAGAACAUCUUCGGAUGCAGAGGAGGCAGGCUUCGGUGGCGCGAUAGCGCCAACGUCCUCAACCUCCAAUGCAUCCCACCACAUGAUGAUGCCUGAAGAGCCUUGGUUUUUUG

The text below walks through data of the RNAGym collection of RNA variant scans (doi:10.1073/pnas.2313332121).

The data set covers variants of B1. As to the kind of experiment: polymerase ribozyme fitness, log enrichment relative to wild type (log ratio); higher = more active; in vitro selection for triplet polymerase activity. The method in brief: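 Fitness measures genotype enrichment against wild-type enrichment on a logarithmic scale, with inverse-variance-weighted averaging of replicates. The logarithm is base 2, and genotypes were kept only with ≥10 input reads and ≥1 read per output in Illumina sequencing. The sequenced libraries came from one triplicate in vitro selection round, including frozen incubation at −7 °C, of PCR-built, transcribed mutant libraries of each subunit of a heterodimeric triplet polymerase ribozyme.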
Take A5G C104U G117C U130G: the “polymerase ribozyme fitness (log ratio)” value was -3.77.
To A5C G71A U132A belongs -1.18.
The result for A5C C13U G60U reads -0.844.
To A5C G71U belongs -0.21.
Turning to A5G C89G, the “polymerase ribozyme fitness (log ratio)” value is -1.15.
Turning to A5C A26G C88U U116C U129A, the “polymerase ribozyme fitness (log ratio)” value is -6.24.
With A5C G63A U81A, the “polymerase ribozyme fitness (log ratio)” value is -2.31.
To C4U G36U belongs -1.82; to A5C U7G U54A G110C, -4.81.
Turning to C4U C62G U112A, the “polymerase ribozyme fitness (log ratio)” value was -1.6.
Take A5C C34A G42C C88U: the “polymerase ribozyme fitness (log ratio)” value is -5.7.
The result for C4U G69U G93U reads -1.17.
Consider A5C C53G U96A C123U, for which the “polymerase ribozyme fitness (log ratio)” value is -0.893.
Consider C4U C11U A37U G71C, for which the “polymerase ribozyme fitness (log ratio)” value is -1.4.
The result for C4U C76G C114U U129A reads -4.95; that for C4U C49U C85U C89G, -2.63; that for C4U G17C G48A G69C G120C, -4.5.
To A5C C70G belongs -2.95; to C4U C13A A46C A50G C72U, -3.05.
To A5C C12G C49A C56A A83C belongs -1.46.
Regarding A5C A26U C62U, the “polymerase ribozyme fitness (log ratio)” value is -4.3.
To A5C C56G C98A A121C belongs -3.33.
To A5G C40U G69U A100G belongs -1.21.
The result for C4U C49U C56G C114A G127A reads -3.57; that for C4U U14A C73U, -4.13.
As to A5G C13A G48C C73A U112A G120C, the “polymerase ribozyme fitness (log ratio)” value is -0.914.
The result for A5G A27G G45C C97U G120A reads -2.95; that for C4U C11G C12A G19C C62G, -4.71; that for C4U G60U C114U, -3.78.
Take A5C U78C G127C U129C: the “polymerase ribozyme fitness (log ratio)” value was -2.19.
Take A5C C123G: the “polymerase ribozyme fitness (log ratio)” value turned out to be 1.35.
Regarding A5G C15U C49U C62A C123A, the “polymerase ribozyme fitness (log ratio)” value was -2.06.
On to A5G G19A C72U U87A G117U, for which the “polymerase ribozyme fitness (log ratio)” value is -4.71.
Turning to C4U U87A, the “polymerase ribozyme fitness (log ratio)” value is -1.16.
The result for C4U G44U C76A G77U A91C G120A reads -2.7.
For the variant A5C A16G C20U A43G A121G, the “polymerase ribozyme fitness (log ratio)” value is -0.652.
On to C4U C13G C15A G19A A90C C115U A119G, for which the “polymerase ribozyme fitness (log ratio)” value is -5.79.
With A5G A18U C28U, the “polymerase ribozyme fitness (log ratio)” value is -4.63.
The result for C4U U81A reads -1.77.
The result for A5C C11G G36U G44A C56A U112A reads -1.22.
The result for A5G C104A G113C reads -4.37; that for A5C C124A U126A U131A, 0.939; that for A5G A111G G122U, -2.04.
With A5C C88G G127A, the “polymerase ribozyme fitness (log ratio)” value was -2.6.
For the variant C4U C11U A18G C34U C73G C124G, the “polymerase ribozyme fitness (log ratio)” value was -5.4.
Regarding C4U C85U, the “polymerase ribozyme fitness (log ratio)” value was -1.63.
Consider A5C C12A, for which the “polymerase ribozyme fitness (log ratio)” value was -0.824.
Take A5C A26U G36A C88U: the “polymerase ribozyme fitness (log ratio)” value was -6.38.
A5C G51C G77A C80G: the “polymerase ribozyme fitness (log ratio)” value was -0.996.
Turning to A5C A74C, the “polymerase ribozyme fitness (log ratio)” value was -1.06.
For the variant A5C A27G G63C A121G, the “polymerase ribozyme fitness (log ratio)” value came to 0.00315.
To A5C U7C A29G G71A C89U G93C belongs -4.81; to A5C G10A C86A, -0.155; to A5G A26U, -2.44.
To A5G C56A A74G C97U C123A belongs 0.643.
To C4U C49U A66G G69C U78A belongs -5.15; to A5C C56G C80U, -1.77; to A5C C8G U33G C97U, -5.64.
On to C4U G63U, for which the “polymerase ribozyme fitness (log ratio)” value was -1.66.
As for A5G A18G G44C G48C U55C U59G G69U G117U, the “polymerase ribozyme fitness (log ratio)” value was -5.43.
For the variant C4U C15A C82G, the “polymerase ribozyme fitness (log ratio)” value was -3.56.
For the variant C4U G36U C73U G127A, the “polymerase ribozyme fitness (log ratio)” value is -2.05.
In the case of A5C U9C C28G C56U G120A, the “polymerase ribozyme fitness (log ratio)” value is -1.71.
As for C4U C49U C73G A121C, the “polymerase ribozyme fitness (log ratio)” value was 0.746.
Consider A5G A18G G117U U125A, for which the “polymerase ribozyme fitness (log ratio)” value was -2.93.
To C4U C49U C98U belongs -2.14; to A5C C12G C49A A83C, -0.122; to A5G A91C, -1.57.
To A5G A43C G44C G52C C73U U109A C114U C115A belongs -6.36; to A5G C13A A46U G63A U133A, -2.84; to A5C A74G C85A C104U, -0.8.
As for A5C G63A C79U, the “polymerase ribozyme fitness (log ratio)” value was -1.41.
Regarding A5G C64U, the “polymerase ribozyme fitness (log ratio)” value was 0.17.
Regarding A5C C89G C114G U126C U131A, the “polymerase ribozyme fitness (log ratio)” value is -5.03.
To A5G A6C A43G C72U belongs -2.46; to A5C C11U G122A, 0.875.
On to C4U C53G G57U G110A, for which the “polymerase ribozyme fitness (log ratio)” value is -1.58.
A5C C82A U126G: the “polymerase ribozyme fitness (log ratio)” value was -0.956.
A5C C11U A43U U59C G60A: the “polymerase ribozyme fitness (log ratio)” value is -4.12.
In the case of A5C G47A U59A A100C U106C, the “polymerase ribozyme fitness (log ratio)” value is -4.2.
A5C A84U: the “polymerase ribozyme fitness (log ratio)” value was -1.12.
The result for A5G C40A C72U G110U reads -3.65; that for A5G G36U G61A A111C A119C, -2.68.
For the variant A5C C12G C114G, the “polymerase ribozyme fitness (log ratio)” value is -5.39.
The result for A5G C8G reads -0.847; that for A5C G48C U78A C115A, -2.4; that for C4U U7A C11A, -0.665.
For the variant A5C U7C G63U C94G G113C A118C, the “polymerase ribozyme fitness (log ratio)” value was -6.82.
For A5C A43G C53U G63C G113C, the “polymerase ribozyme fitness (log ratio)” value is -3.6.
To A5G G42U C115U belongs -1.79; to A5C C40A C64U C89U C102U U106A, -7.21.
To A5G C64U C85U belongs -1.64; to C4U C56U, -0.85; to C4U U92A, -4.01.
The result for A5C A37C C70U G110U reads -4.1; that for A5C U87G C101U, -0.776.
With A5C C56A C80A, the “polymerase ribozyme fitness (log ratio)” value was -3.29.
For C4U C72A, the “polymerase ribozyme fitness (log ratio)” value was -0.193.
The result for A5G C72A reads 0.0113.
For the variant C4U C11G U54A G63C C101A U112C, the “polymerase ribozyme fitness (log ratio)” value is 0.841.
A5G A46U C56U C73G G122A C123A: the “polymerase ribozyme fitness (log ratio)” value is -3.
In the case of A5C A43U U78C G93C, the “polymerase ribozyme fitness (log ratio)” value was -4.85.
On to C4U C13U G42A G69U G77A A90U C104U, for which the “polymerase ribozyme fitness (log ratio)” value is -0.867.
On to C4U G42U U59A, for which the “polymerase ribozyme fitness (log ratio)” value is -2.49.
To A5G C8U C34A C62U G117A belongs -5.35; to A5C U78C C101U, -1.23.
The result for C4U C62U C124G reads 1.31; that for A5C C56G, -1.73; that for C4U C86U C101G, -1.82.
Take A5G C82U C97U C124G U126A: the “polymerase ribozyme fitness (log ratio)” value was -0.153.
To A5C C12A C73U belongs -0.891.
To A5G C49A C53U C85A G135U belongs -3.84; to A5G C12A U38A G60A A121C G135U, 0.199.
To A5G C62A G117C belongs -4.86; to A5C G42U G48C G69U, -0.971; to A5C C89A A111C, -3.6.
With A5G A41G A50U C72U A75U G93A U112A G113C, the “polymerase ribozyme fitness (log ratio)” value is -3.59.
The result for C4U G69A C89U C123G reads -3.15; that for C4U G48U G52U A90U C124G, -1.92.
For the variant C4U C72A C85U C102U A121G U133A, the “polymerase ribozyme fitness (log ratio)” value worked out at 0.405.
The result for C4U C70A C85G C86U reads -3.72.
The result for A5G C40U G45U A50C U125A reads -4.22; that for A5G A27U A111G, -3.24.
The result for A5G A41C reads -0.911; that for A5C C82G U92G U130G, -4.87; that for A5C G52U, -2.8.
Consider A5C G52A, for which the “polymerase ribozyme fitness (log ratio)” value is -0.884.
Take A5G C20U U38G G110U: the “polymerase ribozyme fitness (log ratio)” value is -4.64.
With A5C C11G C79U G117C, the “polymerase ribozyme fitness (log ratio)” value was -1.88.
On to C4U G52A C62U C82G G120C, for which the “polymerase ribozyme fitness (log ratio)” value was -0.476.
The result for C4U C56A C101A G117C reads -5.92; that for A5G C13U C98U G128U, -3.14.
For C4U C64A A68C C79A G120U, the “polymerase ribozyme fitness (log ratio)” value is -6.51.
The result for A5G C12U G35A G71A U78A C85G C124A reads -5.49; that for C4U U7C A43U C70U C85A U92G G120C, -5.06.
As to A5C C12A A27U, the “polymerase ribozyme fitness (log ratio)” value is -4.25.
To A5G C56G belongs -0.49; to A5G C12A G45A U78C C88A, -0.938.
For C4U U7G C11G C13A C56U U87A U112A, the “polymerase ribozyme fitness (log ratio)” value amounted to 1.5.
To A5C C40U U67C C104G C123G G128A belongs -6.57; to A5G C124A, 1.03.
To A5C C11A A50G C53A C99A C102G C104A C115U belongs -7.15; to A5G C15G U32A G63U U112C A119U, -5.37.
As for A5G A29U G48C U112G, the “polymerase ribozyme fitness (log ratio)” value was -4.65.
The result for A5G C13A C53U U59G G69C reads -4.36; that for A5G C13A C20U U129C, -4.45.
The result for A5C G63C C94A G113C G122U reads -4.6; that for A5G C88A A91C C114G A121C, -0.389.
Regarding A5G C11A C70G U81C, the “polymerase ribozyme fitness (log ratio)” value is -4.45.
In the case of A5G G10A C15A G23C U32G C64A G128C U130C, the “polymerase ribozyme fitness (log ratio)” value was -6.17.
To A5C C22U C89A A121G belongs -4.41; to A5G C40A G120U, -0.337; to A5G A37G C53U A105G U112G U125G G135U, -5.89.
Regarding A5C U32C A41G G60A U78A U96A, the “polymerase ribozyme fitness (log ratio)” value was -2.78.
The result for A5G C62U C88G U112C C123A C124A U130A reads 0.112.
To C4U C56A U130C belongs -0.451; to A5C G58A G60C, -0.634.
Take A5C C8G A26U: the “polymerase ribozyme fitness (log ratio)” value was -1.68.
To A5C A18C belongs -2.78; to C4U C72G C94G G113A G122U, -3.87.
To C4U U130A belongs -1.49.
Turning to C4U C70G, the “polymerase ribozyme fitness (log ratio)” value was -2.23.
A5C C11U C40U G48U G60U U87A A111C: the “polymerase ribozyme fitness (log ratio)” value was -4.98.
To C4U C53U U125A belongs -1.45; to A5C C8U A16U G45U G63A, -2.38.
To A5C C104U belongs -1.05; to A5C C22G C56G C123U, -4.43.
